The target of experiment [1] is human CD38 on cells (CHO-hCD38 / wild-type, and human tumor cell lines with positive CD38 expression) (human, UniProt P28907 1-300). Description: cell-based or functional assay.
For experiment [2], the target named is T1, cynomolgus macaque CD38 on CHO cells (CHO-cynomolgus CD38) (cynomolgus macaque, UniProt Q5VAN0 1-301).
T1 construct: whole, on cells; also called CHO/mkCD38; mkCD38
Description: flow cytometry on CHO-cynomolgus CD38 cells.

Experiment [3] addresses T2, recombinant cynomolgus macaque CD38-his protein (Sino Biological Inc.) (cynomolgus macaque, UniProt Q5VAN0 44-301, limits assumed).
T2 construct: Bought protein; also called recombinant cynomolgus macaque CD38 protein; cynomolgus macaque CD38 protein; not shown: his tag
Briefly: direct ELISA, plate coated with recombinant cynomolgus macaque CD38-his protein.

B1: Daratumumab (antibody, V domains shown)
VH: EVQLLESGGGLVQPGGSLRLSCAVSGFTFNSFAMSWVRQAPGKGLEWVSAISGSGGGTYYADSVKGRFTISRDNSKNTLYLQMNSLRAEDTAVYFCAKDKILWFGEPVFDYWGQGTLVTVSS
VL: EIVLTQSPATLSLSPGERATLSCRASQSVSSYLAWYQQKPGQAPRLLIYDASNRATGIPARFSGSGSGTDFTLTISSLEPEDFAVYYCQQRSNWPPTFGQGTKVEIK
With B1, the “EC50 of CDC activity, Daudi target cells, 10% rabbit serum” value (“EC50 of CDC activity … 10% rabbit serum” below) in experiment [1] was determined as 0.1 µg/mL.

B2: murine monoclonal antibody m29 (antibody, mouse IgG2b, V domains shown)
VH: QVQLQQSVSELRSPGSSVKLSCKDFDSEVFPTSYMSWVRQKPGHGFEWIGDILPNIGRIFYGEKFEDKAKLDADTVSNTAYLELTSLSSEDSAIYYCAREAYGSILGYWGQGTLVAVSA
VL: DIVMTQTPLSLPVGLGDQASISCRSSQSLLHSNGNTYLHWYLQKPGQSPKLLIYKVSNRFSGVPDRFSGSGSGTDFTLKISRVEAEDLGVYFCSQSSHLPWTFGGGTKLEIK
notes: also called mouse monoclonal antibody m29; m29 monoclonal antibody
As to B2, the “EC50 of CDC activity … 10% rabbit serum” value in experiment [1] is approximately 0.03 µg/mL. In addition, the binding result in experiment [2] is on record as “binds”.

B3: human-mouse chimeric antibody ch29G (antibody, V domains shown)
VH: B2 VH
VL: B2 VL
notes: not shown: human IgG1 heavy chain constant region; human kappa light chain constant region (C-domain)
In the case of B3, the binding result in experiment [3] and in experiment [2] was “binds” each time. The “EC50 of CDC activity … 10% rabbit serum” value in experiment [1] was approximately 0.03 µg/mL.

These data come from patent publication US20210324102A1 (ACROIMMUNE BIOTECH, published 2021).
